# * marks the point of attachment. AMC = Cc1cc(=O)oc2cc(N*)ccc12
# T1: SplA wildtype (S. aureus strain USA300 variant) (Staphylococcus aureus strain USA300) (UniProt Q2FFS9)
# T1 sequence: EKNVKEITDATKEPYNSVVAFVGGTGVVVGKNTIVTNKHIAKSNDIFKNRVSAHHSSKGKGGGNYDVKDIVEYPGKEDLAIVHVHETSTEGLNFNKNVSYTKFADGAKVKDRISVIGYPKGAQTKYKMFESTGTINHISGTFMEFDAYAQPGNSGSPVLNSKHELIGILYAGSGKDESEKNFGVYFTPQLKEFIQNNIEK
# How the values were obtained:
# [1] = molecular target: SplA allelic variant A5 (Staphylococcus aureus) (UniProt Q2FFS9)
# [2] = molecular target: T1, SplA wildtype (S. aureus strain USA300 variant) (Staphylococcus aureus strain USA300)
# [3] = molecular target: SplA allelic variant A3 (Staphylococcus aureus) (UniProt Q2FFS9)
# [4] = molecular target: SplA allelic variant A1 (Staphylococcus aureus) (UniProt Q2FFS9)
# [5] = molecular target: SplA allelic variant A6 (Staphylococcus aureus) (UniProt Q2FFS9)
# [6] = molecular target: SplA allelic variant A4 (Staphylococcus aureus) (UniProt Q2FFS9)
Molecule,"KM of Michaelis-Menten kinetics, cleavage of the fluorogenic substrate (AMC release) [1] [µM]","KM of Michaelis-Menten kinetics, cleavage of the fluorogenic substrate (AMC release) [2] [µM]","KM of Michaelis-Menten kinetics, cleavage of the fluorogenic substrate (AMC release) [3] [µM]","KM of Michaelis-Menten kinetics, cleavage of the fluorogenic substrate (AMC release) [4] [µM]","KM of Michaelis-Menten kinetics, cleavage of the fluorogenic substrate (AMC release) [5] [µM]","KM of Michaelis-Menten kinetics, cleavage of the fluorogenic substrate (AMC release) [6] [µM]"
Ac-Tyr-Leu-Tyr-{AMC},35,49,39,54,109,65
Ac-VWLY-{AMC} (SMILES CC(=O)N[C@H](C(=O)N[C@@H](Cc1c[nH]c2ccccc12)C(=O)N[C@@H](CC(C)C)C(=O)N[C@@H](Cc1ccc(O)cc1)C(=O)Nc1ccc2c(C)cc(=O)oc2c1)C(C)C) [Ac-VWLY-AMC],13,11,11,26,19,23
